Source: the supplement of paper PMC10567573

B1: P2RY14 (parent)
chain: KKIFKSHLKSSRNSTSVKKKSSRN
B2: PPEF2 (parent)
chain: DHSGFISLDEFRQTWKLFSSHMNI

Variants of: B1
Experiment: protein stability index of a GFP-peptide fusion (GPS, HEK-293T) (PSI 1-6); higher = more stable
Conditions: c terminus: a fixed tail appended
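Note: lentivirally expressed fusions sorted by FACS into six bins by GFP to DsRed ratio, PSI derived from sequencing read proportions per bin multiplied by bin number.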

Protein stability index of substitutions, site by site:
K5: Y 3.48; T 4.06; S 4.2; I 3.55; D 4.16; C 4.05; Q 4.27; L 3.76; V 3.93; E 3.89; F 4.01; M 3.95; W 3.45; G 4.44; R 3.67; P 4.18; N 4.33; H 4.33; A 4.33
K9: N 4.5; Y 3.67; T 3.98; F 3.57; G 4.01; I 3.7; Q 4.04; D 4.05; P 4.47; L 4.05; C 4.37; E 4.51; R 4.27; W 3.21; H 4.41; A 4.07; M 4; S 3.87; V 3.39
R12: K 4.03; V 4.45; T 4.37; C 3.6; S 3.94; W 3.74; Y 3.39; G 3.87; A 4.17; Q 4.16; P 4.15; D 4.43; E 4.08; I 3.8; M 4.03; F 3.83; H 3.93; L 4.11; N 4.17
S6: V 3.79; L 3.18; H 3.9; Y 3.34; T 4.11; E 4.36; D 4.62; G 4.18; A 3.68; N 4.57; M 3.82; K 4.33; R 4.49; I 3.5; Q 4.07; W 3.26; C 4.06; F 3.34; P 3.69
I3: A 4.18; T 4.66; P 4.38; C 4.27; R 4.44; W 3.79; Q 4.14; F 3.91; G 4.28; E 5.07; L 4.23; D 4.95; Y 4.39; S 4.6; H 4.34; V 4.04; N 4.63; K 4.18; M 4.77
N13: F 3.77; A 4.12; C 3.74; P 3.45; R 4.38; E 3.55; M 3.64; G 4.11; Q 4.2; L 3.3; T 4.5; Y 3.6; I 4.15; H 3.52; K 3.95; W 3.41; V 4.22; D 3.68; S 4.89
L8: A 4.56; M 4.11; S 5.01; H 4.05; D 4.58; Y 3.59; K 4.29; W 3.95; C 4.39; I 4.16; Q 3.49; G 4.49; P 4.33; V 4.14; N 4.31; R 4.14; T 4.3; E 4.43; F 4.04
S10: G 3.81; K 4.15; T 4.17; A 4.08; N 4.33; L 4.02; C 4.03; M 4.01; W 3.46; F 3.38; R 4.18; E 4; Y 3.54; P 4.24; I 3.59; Q 3.83; D 4.41; V 3.81; H 4.14
T15: D 4.28; A 4.27; C 3.63
K1: Q 4.25; P 4.22; G 4.51; S 4.26; D 4.5; M 3.43; C 3.51; I 2.88; H 4.63; R 3.42; F 3.8; N 4.4; L 3.18; T 4; A 4.12; Y 3.58; E 3.97; V 3.5; W 2.7
K2: V 3.73; W 3.12; A 3.91; M 3.53; S 4.37; P 3.98; H 4.01; T 4.3; F 3.63; Y 3.67; Q 4.04; L 3.2; C 3.88; N 4.13; G 4.12; D 4.66; E 4.29; I 3.35; R 3.88
F4: Q 4.71; E 4.45; S 4.72; I 4.3; W 3.96; K 4.47; L 4; A 4.49; D 4.6; P 4.58; C 4.27; M 4.28; H 4.07; G 4.56; Y 3.67; V 4.39; R 4.48; T 4; N 4.49
S11: F 3.69; W 3.36; P 4.3; R 4.44; Y 3.37; D 4.33; V 4.31; E 4.35; K 3.89; A 3.93; N 3.96; C 3.93; Q 4.31; I 3.98; L 4.12; T 4.22; G 4.26; H 4.67; M 3.62
S14: V 3.84; W 3.44; T 4.33; A 3.5; H 4.35; P 4.43; R 4.36; C 4.31; Q 3.69; D 4.14; M 3.98; N 4.44; K 4.07; I 4.14; E 4.35; L 3.88; G 4.22; F 3.84; Y 4.1
H7: A 3.79; K 4.39; D 4.36; R 4.28; C 4.05; P 3.74; Y 3.38; V 3.93; Q 3.67; I 3.72; S 4.15; G 4.27; E 4.41; N 4; W 3.3; M 3.79; T 4.41; F 3.76; L 3.7

Variants of: B2
Experiment: as above
Conditions: c terminus: a fixed tail appended

Protein stability index: each site, then its substitutions
S7: G 2.95; I 2.44; E 1.86
T14: C 2.88; P 2.17; Q 2.08; E 1.87
E10: I 1.58; V 2.88; Q 1.96; H 2.25
S20: H 1.63
G4: V 3.22; P 1.98; N 2.69; T 1.95
L8: S 1.75; M 1.88
I24: W 2.35; S 1.58; L 1.9
F11: V 2.07
K16: Q 1.74; H 1.74; Y 3.45
F18: H 1.55; T 1.82; W 1.87; I 2.51
S19: R 1.7; C 1.54; E 1.3; V 2.26; G 1.81
F5: A 1.33; W 1.93; M 1.4
D1: G 1.47; P 2.12; N 3.49
R12: S 2.04; I 2.73; N 1.81; T 2.98; A 1.87
L17: S 2; V 1.36
I6: D 1.62
M22: D 2.41; N 1.62
D9: N 1.51; G 2.82; R 1.92; S 1.84; K 2.1; H 1.87; T 2.24
H21: Y 1.49; Q 1.06; F 2.27
W15: C 2.39
H2: P 2.32; A 2.35; F 1.9; K 2.01
